This note sets out measurements from patent US20190085083A1 (BRIGHAM AND WOMEN S HOSPITAL, published 2019).

The target of the experiment is T1, hKLRG1 (human KLRG1), plate-coated, Example 21 (human, UniProt Q96E93 60-195, limits assumed).
T1 construct: also called plate-coated KLRG1
T1 sequence (looked up): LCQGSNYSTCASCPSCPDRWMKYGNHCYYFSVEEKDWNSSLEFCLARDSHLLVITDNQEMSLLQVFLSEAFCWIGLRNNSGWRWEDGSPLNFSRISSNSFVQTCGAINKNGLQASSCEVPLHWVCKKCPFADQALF
Kind of experiment: ELISA, soluble hE-cadherin on plate-coated hKLRG1. The text has this: An ELISA based KLRG1/E-cadherin competition assay was developed to measure KLRG1/E-cadherin binding as well as neutralization of KLRG1/E-cadherin binding.
FIG. 23 presents the results of soluble hE-cadherin binding to plate-coated hKLRG1.

B1: soluble recombinant human E-cadherin (ligand)
chain: DWVIPPISCPENEKGPFPKNLVQIKSNKDKEGKVFYSITGQGADTPPVGVFIIERETGWLKVTEPLDRERIATYTLFSHAVSSNGNAVEDPMEILITVTDQNDNKPEFTQEVFKGSVMEGALPGTSVMEVTATDADDDVNTYNAAIAYTILSQDPELPDKNMFTINRNTGVISVVTTGLDRESFPTYTLVVQAADLQGEGLSTTATAVITVTDTNDNPPIFNPTTYKGQVPENEANVVITTLKVTDADAPNTPAWEAVYTILNDDGGQFVVTTNPVNNDGILKTAKGLDFEAKQQYILHVAVTNVVPFEVSLTTSTATVTVDVLDVNEAPIFVPPEKRVEVSEDFGVGQEITSYTAQEPDTFMEQKITYRIWRDTANWLEINPDTGAISTRAELDREDFEHVKNSTYTALIIATDNGSPVATGTGTLLLILSDVNDNAPIPEPRTIFFCERNPKPQVINIIDADLPPNTSPFTAELTHGASANWTIQYNDPTQESIILKPKMALEVGDYKINLKLMDNQNKDQVTTLEVSVCDCEGAAGVCRKAQPVEAGLQIPA
notes: also called hE-cadherin; soluble E-cadherin
For orientation: EC50 means the midpoint of the concentration-response curve. A lower EC50 goes with greater potency. For the molecule B1, the EC50 amounted to 25 nM.
